MFI data for seven molecules are collected here from patent publication US20250313627A1 (FUSE BIOTHERAPEUTICS, published 2025).

Sequences and labels used below:
B1: FUSE-661 - h2A11-HK2-3-N84S Fc (Fc fusion)
chain: EVQLLESGGGLVQPGGSLRLSCAASGSQRSANCMGWFRQAPGKDRELASMSIRSGRTYYADSVKGRFTISRDSSKNTLYLQMSSLKAEDTAVYYCAAAYGGSRCVYNYRGQGTLVTVSS
notes: VHH-Fc format; not shown: Fc of the VHH-Fc format
B2: FUSE-662 - h2A11-HK2-16-N84S Fc (Fc fusion)
chain: EVQLLESGGGLVQPGGSLRLSCAASGVGYSANCMGWFRQAPGKDRELASMSIRSGRTYYADSVKGRFTISRDSSKNTLYLQMSSLKAEDTAVYYCAAAYGGSRCVYNYRGQGTLVTVSS
notes: as for B1
B3: FUSE-654 - h5A1-FA9-HK6-R19K Fc (Fc fusion)
chain: EVQLLESGGGLVPRGGSLKLSCTASGYTNRLKCMGWFRQAPGKEREEIASISTGTGNTYYADSVKGRFTISQDKSRNTLYLQMNSLKAEDTAVYYCAADVRPRGTTCHYNSRGQGTQVTVSS
notes: as for B1
B4: FUSE-655 - h5A1-FA9-HK6-N84S Fc (Fc fusion)
chain: EVQLLESGGGLVPRGGSLRLSCTASGYTNRLKCMGWFRQAPGKEREEIASISTGTGNTYYADSVKGRFTISQDKSRNTLYLQMSSLKAEDTAVYYCAADVRPRGTTCHYNSRGQGTQVTVSS
notes: as for B1
B5: FUSE-489 (h5A1-Ac13) (bispecific antibody, human IgG1, lambda, L234A L235A)
heavy: EVQLVESGGGLVQPGGSLRLSCAASGFTFSTYAMNWVRQAPGKGLEWVARIRSKYNNYATYYADSVKDRFTISRDDSKNTLYLQMNSLRAEDTAVYYCARHGNFGNSYVSWFAYWGQGTMVTVSSASTKGPSVFPLAPSSKSTSGGTAALGCLVKDYFPEPVTVSWNSGALTSGVHTFPAVLQSSGLYSLSSVVTVPSSSLGTQTYICNVNHKPSNTKVDKKVEPKSCDKTHTCPPCPAPEAAGGPSVFLFPPKPKDTLMISRTPEVTCVVVDVSHEDPEVKFNWYVDGVEVHNAKTKPREEQYNSTYRVVSVLTVLHQDWLNGKEYKCKVSNKALPAPIEKTISKAKGQPREPQVYTLPPSREEMTKNQVSLSCAVKGFYPSDIAVEWESNGQPENNYKTTPPVLDSDGSFFLVSKLTVDKSRWQQGNVFSCSVMHEALHNRFTQKSLSLSPGK
chain: QVQLQESGGGLVQPGGSLRLSCTASGYTNRLKCMGWVRQAPGKEREEVATISTGTGNTYYADSVKGRFTISRDNSKNTLYLQMNSLRAEDTAMYYCAADVRPDGTTCHYNSGGQGTQVTVSSEPKSSDKTHTCPPCPAPEAAGGPSVFLFPPKPKDTLMISRTPEVTCVVVDVSHEDPEVKFNWYVDGVEVHNAKTKPREEQYNSTYRVVSVLTVLHQDWLNGKEYKCKVSNKALPAPIEKTISKAKGQPREPQVYTLPPSREEMTKNQVSLWCLVKGFYPSDIAVEWESNGQPENNYKTTPPVLDSDGSFFLYSKLTVDKSRWQQGNVFSCSVMHEALHNHYTQKSLSLSPGK
light: QAVVTQEPSLTVSPGGTVTLTCRSSTGAVTTSNYANWVQQKPGQAPRGLIGGTNKRAPGTPARFSGSLLGGKAALTLSGVQPEDEAEYYCALWYSNLWVFGGGTKLTVLGQPKAAPSVTLFPPSSEELQANKATLVCLISDFYPGAVTVAWKADSSPVKAGVETTTPSKQSNNKYAASSYLSLTPEQWKSHRSYSCQVTHEGSTVEKTVAPTECSGGGGSGGGGSGGGGSGGGGSQVQLQESGGGLVQPGGSLRLSCTASGYTNRLKCMGWVRQAPGKEREEVATISTGTGNTYYADSVKGRFTISRDNSKNTLYLQMNSLRAEDTAMYYCAADVRPDGTTCHYNSGGQGTQVTVSS
notes: Format Ac13
B6: FUSE-497 (h5A1-Ac13) (bispecific antibody, human IgG1, lambda, L234A L235A)
heavy: EVQLVESGGGLVQPGGSLRLSCAASGFTFSTYAMNWVRQAPGKGLEWVARIRSKYNNYATYYADSVKDRFTISRDDSKNTLYLQMNSLRAEDTAVYYCARHGNFGNSYVSWFAYWGQGTMVTVSSASTKGPSVFPLAPSSKSTSGGTAALGCLVKDYFPEPVTVSWNSGALTSGVHTFPAVLQSSGLYSLSSVVTVPSSSLGTQTYICNVNHKPSNTKVDKKVEPKSCDKTHTCPPCPAPEAAGGPSVFLFPPKPKDTLMISRTPEVTCVVVDVSHEDPEVKFNWYVDGVEVHNAKTKPREEQYNSTYRVVSVLTVLHQDWLNGKEYKCKVSNKALPAPIEKTISKAKGQPREPQVYTLPPSREEMTKNQVSLSCAVKGFYPSDIAVEWESNGQPENNYKTTPPVLDSDGSFFLVSKLTVDKSRWQQGNVFSCSVMHEALHNRFTQKSLSLSPGK
chain: EVQLLESGGGLVPRGGSLRLSCTASGYTNRLKCMGWFRQAPGKEREEIATISTGTGNTYYADSVKGRFTISRDNSRNTLYLQMKTLRAEDTAVYYCAADVRPDGTTCHYNSWGQGTQVTVSSEPKSSDKTHTCPPCPAPEAAGGPSVFLFPPKPKDTLMISRTPEVTCVVVDVSHEDPEVKFNWYVDGVEVHNAKTKPREEQYNSTYRVVSVLTVLHQDWLNGKEYKCKVSNKALPAPIEKTISKAKGQPREPQVYTLPPSREEMTKNQVSLWCLVKGFYPSDIAVEWESNGQPENNYKTTPPVLDSDGSFFLYSKLTVDKSRWQQGNVFSCSVMHEALHNHYTQKSLSLSPGK
light: QAVVTQEPSLTVSPGGTVTLTCRSSTGAVTTSNYANWVQQKPGQAPRGLIGGTNKRAPGTPARFSGSLLGGKAALTLSGVQPEDEAEYYCALWYSNLWVFGGGTKLTVLGQPKAAPSVTLFPPSSEELQANKATLVCLISDFYPGAVTVAWKADSSPVKAGVETTTPSKQSNNKYAASSYLSLTPEQWKSHRSYSCQVTHEGSTVEKTVAPTECSGGGGSGGGGSGGGGSGGGGSEVQLLESGGGLVPRGGSLRLSCTASGYTNRLKCMGWFRQAPGKEREEIATISTGTGNTYYADSVKGRFTISRDNSRNTLYLQMKTLRAEDTAVYYCAADVRPDGTTCHYNSWGQGTQVTVSS
notes: Format Ac13
B7: FUSE-498 (h5A1-Ac13) (bispecific antibody, human IgG1, lambda, L234A L235A)
heavy: EVQLVESGGGLVQPGGSLRLSCAASGFTFSTYAMNWVRQAPGKGLEWVARIRSKYNNYATYYADSVKDRFTISRDDSKNTLYLQMNSLRAEDTAVYYCARHGNFGNSYVSWFAYWGQGTMVTVSSASTKGPSVFPLAPSSKSTSGGTAALGCLVKDYFPEPVTVSWNSGALTSGVHTFPAVLQSSGLYSLSSVVTVPSSSLGTQTYICNVNHKPSNTKVDKKVEPKSCDKTHTCPPCPAPEAAGGPSVFLFPPKPKDTLMISRTPEVTCVVVDVSHEDPEVKFNWYVDGVEVHNAKTKPREEQYNSTYRVVSVLTVLHQDWLNGKEYKCKVSNKALPAPIEKTISKAKGQPREPQVYTLPPSREEMTKNQVSLSCAVKGFYPSDIAVEWESNGQPENNYKTTPPVLDSDGSFFLVSKLTVDKSRWQQGNVFSCSVMHEALHNRFTQKSLSLSPGK
chain: EVQLVESGGGLVQPGGSLRLSCTASGYTNRLKCMGWFRQAPGKEREEIATISTGTGNTYYADSVKGRFTFSRDNSKNTLYLQMNSLRAEDTAVYYCAADVRPDGTTCHYNSGGQGTQVTVSSEPKSSDKTHTCPPCPAPEAAGGPSVFLFPPKPKDTLMISRTPEVTCVVVDVSHEDPEVKFNWYVDGVEVHNAKTKPREEQYNSTYRVVSVLTVLHQDWLNGKEYKCKVSNKALPAPIEKTISKAKGQPREPQVYTLPPSREEMTKNQVSLWCLVKGFYPSDIAVEWESNGQPENNYKTTPPVLDSDGSFFLYSKLTVDKSRWQQGNVFSCSVMHEALHNHYTQKSLSLSPGK
light: QAVVTQEPSLTVSPGGTVTLTCRSSTGAVTTSNYANWVQQKPGQAPRGLIGGTNKRAPGTPARFSGSLLGGKAALTLSGVQPEDEAEYYCALWYSNLWVFGGGTKLTVLGQPKAAPSVTLFPPSSEELQANKATLVCLISDFYPGAVTVAWKADSSPVKAGVETTTPSKQSNNKYAASSYLSLTPEQWKSHRSYSCQVTHEGSTVEKTVAPTECSGGGGSGGGGSGGGGSGGGGSEVQLVESGGGLVQPGGSLRLSCTASGYTNRLKCMGWFRQAPGKEREEIATISTGTGNTYYADSVKGRFTFSRDNSKNTLYLQMNSLRAEDTAVYYCAADVRPDGTTCHYNSGGQGTQVTVSS
notes: Format Ac13

In one test the target is T1, human ROR1 (Receptor Tyrosine Kinase-Like Orphan Receptor 1) on the cell surface (human, UniProt Q01973 30-937).
T1 construct: whole, on cells; engineered into B16-F10 (high density) and LS174T (low density) cells; also called B16-F10-ROR1-H; LS174T-ROR1-L
T1 sequence (Q01973 30-937): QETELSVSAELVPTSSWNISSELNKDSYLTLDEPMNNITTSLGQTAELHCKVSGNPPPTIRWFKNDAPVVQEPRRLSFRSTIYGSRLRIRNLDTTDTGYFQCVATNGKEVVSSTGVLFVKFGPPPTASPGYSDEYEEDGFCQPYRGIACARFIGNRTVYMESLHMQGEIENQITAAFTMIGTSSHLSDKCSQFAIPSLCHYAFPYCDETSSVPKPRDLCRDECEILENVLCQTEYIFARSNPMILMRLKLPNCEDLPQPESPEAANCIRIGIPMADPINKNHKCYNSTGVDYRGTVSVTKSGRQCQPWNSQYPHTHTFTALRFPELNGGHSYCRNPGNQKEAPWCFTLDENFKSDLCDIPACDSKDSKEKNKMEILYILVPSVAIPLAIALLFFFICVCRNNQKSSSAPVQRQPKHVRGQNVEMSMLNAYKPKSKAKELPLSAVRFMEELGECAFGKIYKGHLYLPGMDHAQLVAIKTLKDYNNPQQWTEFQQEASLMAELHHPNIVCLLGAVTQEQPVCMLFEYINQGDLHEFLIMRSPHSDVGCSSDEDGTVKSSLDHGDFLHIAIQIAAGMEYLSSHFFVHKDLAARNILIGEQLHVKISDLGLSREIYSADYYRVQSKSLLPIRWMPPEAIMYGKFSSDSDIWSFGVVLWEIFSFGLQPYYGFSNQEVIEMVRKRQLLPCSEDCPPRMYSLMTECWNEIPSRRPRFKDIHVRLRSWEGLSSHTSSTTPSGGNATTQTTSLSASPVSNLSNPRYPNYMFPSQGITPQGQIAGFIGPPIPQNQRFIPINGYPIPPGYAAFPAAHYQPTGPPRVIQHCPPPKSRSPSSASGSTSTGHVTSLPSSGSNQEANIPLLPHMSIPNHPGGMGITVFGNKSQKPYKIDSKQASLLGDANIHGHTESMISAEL
Briefly: flow cytometry, LS174T cells expressing human ROR1 (low density). On the procedure: (§1) As shown in the tables below, mouse B16-F10 melanoma (Tables 9A-9F) or LS174T human colorectal adenocarcinoma (Tables 9G-9H) cells genetically engineered to express human ROR1 at high and low densities, respectively, were stained for flow cytometric analysis with 100 nM of humanized variants of the ROR1 specific VHHs, 5A1 or 2A11 in either a VHH-Fc format or the Ac13 format shown in FIG. 1. Cells were analyzed on a flow cytometer after the primary test article was fluorescently tagged with a goat anti human IgG-Fc specific PE secondary antibody. The positive control used was PE conjugated anti-human ROR1 clone 2A2. Negative controls included a PE labeled mouse IgG Ab, the secondary antibody only, the combination of a Hen Egg Lysozyme (HEL) specific antibody plus goat anti human IgG-Fc specific PE and Fluorescence Minus One (FMO). Other controls included the non-humanized version of 5A1-Fc (FUSE179), 2A11-Fc (FUSE112) and 5A1-Ac13 (FUSE488). Humanized variants were generated using computational design (FUSE489, FUSE497-498, FUSE563, FUSE569-570, and BI-HU9-VHH11-33), a yeast display library in which mutations were inserted into the Vernier zone residues of human framework indicated in GenBank accession number M99660 (FUSE524-525, FUSE589, FUSE597-598, FUSE537, FUSE661-662, BI-HU9-HK and BI-HU9-HK-1), and a second yeast display library in which mutations were inserted into the Vernier zone residues of human framework indicated in GenBank accession number AWH66715 and amino acid position 103 within CDR3 (FUSE559, FUSE590-596, BI-HU9-VH9-1, FUSE654-655 and FUSE661-662. Affinity matured variants of FUSE559 were also generated using computational design (F22158101-21; Table 9H).
In general terms: Flow cytometry measures light scatter and fluorescence of single cells or particles in a stream.
As to B1, the MFI was 4880.
On the same count and under the same terms, as for B2, the figure is 4350; as for B3, 4560; as for B4, 4010.

In another test the target is T1, human ROR1 (Receptor Tyrosine …). Briefly: flow cytometry, B16-F10 cells expressing human ROR1 (high density). Here is the method:
as §1
For B5, the MFI turned out to be 1060.
Still for that read-out and setting: as for B6, the figure is 811; as for B7, 1360.
